# Assay results published in article PMC4963399.
# T1: rhodopsin, P15409
# T1 chain: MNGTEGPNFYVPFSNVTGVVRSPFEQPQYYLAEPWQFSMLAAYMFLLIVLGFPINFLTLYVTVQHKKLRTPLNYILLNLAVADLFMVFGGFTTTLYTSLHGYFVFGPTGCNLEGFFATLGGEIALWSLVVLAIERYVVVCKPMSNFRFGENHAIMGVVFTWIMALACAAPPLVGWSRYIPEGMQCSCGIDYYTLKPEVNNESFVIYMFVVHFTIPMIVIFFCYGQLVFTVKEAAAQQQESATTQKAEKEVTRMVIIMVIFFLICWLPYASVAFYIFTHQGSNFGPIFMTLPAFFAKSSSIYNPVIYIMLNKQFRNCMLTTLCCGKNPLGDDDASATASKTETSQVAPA
# B1: peripherin-2, N-terminally tagged with citrine, P15499 1-346 (natural protein)
# chain: MALLKVKFDQKKRVKLAQGLWLMNWLSVLAGIVLFSLGLFLKIELRKRSEVMNNSESHFVPNSLIGVGVLSCVFNSLAGKICYDALDPAKYAKWKPWLKPYLAVCIFFNVILFLVALCCFLLRGSLESTLAYGLKNGMKYYRDTDTPGRCFMKKTIDMLQIEFKCCGNNGFRDWFEIQWISNRYLDFSSKEVKDRIKSNVDGRYLVDGVPFSCCNPSSPRPCIQYQLTNNSAHYSYDHQTEELNLWLRGCRAALLNYYSSLMNSMGVVTLLVWLFEVSITAGLRYLHTALESVSNPEDPECESEGWLLEKSVPETWKAFLESFKKLGKSNQVEAEGADAGPAPEAG
# B2: peripherin-2, C-terminally tagged with citrine, P15499 1-346 (natural protein)
# chain: B1 chain
# Target: T1, rhodopsin, P15409
# Assay: FRET or BRET; three cube sensitized acceptor emission FRET on single isolated rod outer segments of C57BL/6J mice co-transduced with two rAAV vectors (cerulean and citrine fusions); FRET imaging solution pH 7.4; FRET efficiency EA as mean ± SEM
# Settings: remark: other sources report otherwise
row,Binder,FRET efficiency EA
1,B1,4.52
2,B2,2.76
